Results published in US20210115146A1 (WUXI BIOLOGICS IRELAND, published 2021).
Residue numbers refer to the chain shown, from its start.

B1: W5626-2C10.VHH (VHH)
VHH: AVQLVESGGGLVQAGGSLTLSCAASGRTFSSYAMGWFRQAPGKEREFVAADRWSGGNTRYADSVKGRFTISRDNAKNTVYLQMNSLKPEDTAVYYCAATYLSSDYEWGVPPKAYDYDYWGQGTQVTVSS
notes: c-Myc and his-tagged VHH fragment made in E. coli BL21; not shown: 6-his and c-Myc tags fused at the C-terminus
B2: W5626-2C10-z5 (VHH) (VHH)
VHH: B1 VHH with A14P, V79L, K87R, P88A, Q124L
notes: also called c-Myc and his-tagged VHH fragment of W5626-2C10-z5; not shown: c-Myc and his tags
B3: W5626-2C2.VHH (VHH)
VHH: EVQLVESGGGLVQAGDSLRLSCAASGRTHSNYVMGWFRQAPGQEREFVAGISRTYGNTYYRDSVEGRFTISVDNPKNTVYLQMNSLKPEDTAVYYCAADPTRSEVILTTSHRYVYWGQGTLVTVSS
notes: as for B1
B4: W5626-2C2-z22 (VHH) (VHH)
VHH: B3 VHH with A14P, D16G, V72R, P75S, V79L, K87R, P88A
notes: also called c-Myc and his-tagged VHH fragment of W5626-2C2-z22; not shown: c-Myc and his tags

Assays:
[1] = biological target: T1, human EGFRvIII (cell surface) (human, UniProt P00533 25-1210); assay: FACS on EGFRvIII transfected cells, anti-c-Myc-biotin and streptavidin-PE
T1 construct: whole, on cells; also called hEGFRIII; EGFR variant III

[2] = biological target: T2, human EGFR (cell surface) (human, UniProt P00533 25-1210); assay: FACS competition, competitor W5626-2C10-z5; lower panel 'Binning with W5626-2C10-z5'; cells not named on the sheet, A431 in the example
T2 construct: whole, on cells; also called W562-CHO-K1.hPro1.E9 cells; A431 cells

[3] = biological target: T2, human EGFR (cell surface); assay: FACS competition, competitor W5626-2C2-z22; upper panel 'Binning with W5626-2C2-z22'; cells not named on the sheet, A431 in the example
HER3.his [4] = biological target: T3, HER3.his (Homo sapiens (Human), UniProt P21860 20-643); assay: ELISA, antigen coated at 2 µg/mL, anti-cMyc-HRP detection
Procedure: (§1) Non-specific binding ELISA was performed in 96-well high binding plates (Nunc-Immuno Plate, Thermo Scientific). The plate was coated with various antigens at 2 μg/mL overnight at 4° C. […] The plates were subsequently incubated with the secondary antibody Goat anti-cMyc-HRP (Bethyl) for additional 1 hour. The HRP signal was detected by adding TMB substrate and the reaction was stopped after 12 minutes using 2M HCl. The absorbance at 450 nm was read using a microplate reader (Molecular Device). All incubation steps were performed at room temperature. The plate was washed with PBST (0.05% Tween20-PBS) between each step.

4-1BB.his [5] = biological target: T4, 4-1BB.his (Homo sapiens (Human), UniProt Q07011 24-186); assay: as above
T4 sequence (Q07011 24-186 limits assumed): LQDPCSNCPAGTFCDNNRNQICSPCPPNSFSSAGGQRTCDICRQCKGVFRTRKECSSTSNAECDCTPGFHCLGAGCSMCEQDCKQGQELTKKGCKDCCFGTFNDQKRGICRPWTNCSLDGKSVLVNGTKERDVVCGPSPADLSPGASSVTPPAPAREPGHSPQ
Procedure: as §1

HSA [6] = biological target: T5, HSA (UniProt P02768 25-609); assay: as above
Procedure: as §1

Factor Eight = assay: non-specific binding ELISA, 10 µg/ml VHH on coated antigen
Procedure: as §1

FGFR.his = assay: as above
Procedure: as §1

CD147 = assay: as above
Procedure: as §1

PD-1.his = assay: as above
Chain of PD-1.his (Q15116 25-170): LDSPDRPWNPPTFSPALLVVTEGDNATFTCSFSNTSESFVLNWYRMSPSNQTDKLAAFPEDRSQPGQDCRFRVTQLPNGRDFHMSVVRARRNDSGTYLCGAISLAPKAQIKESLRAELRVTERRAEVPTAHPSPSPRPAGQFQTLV
Procedure: as §1

CTLA4.his = assay: as above
Chain of CTLA4.his (P16410 36-161): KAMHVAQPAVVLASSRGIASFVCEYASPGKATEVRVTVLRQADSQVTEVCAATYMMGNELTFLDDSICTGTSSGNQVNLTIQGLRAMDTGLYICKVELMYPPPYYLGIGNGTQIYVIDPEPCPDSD
Procedure: as §1

W317-hPro1.ECD.his = assay: as above
Procedure: as §1

CD22.his = assay: as above
Procedure: as §1

VEGF.his = assay: as above
Procedure: as §1

CD3.his = assay: as above
Procedure: as §1

HER3.his [7] = biological target: T3, HER3.his; assay: as above
Procedure: as §1

OX40.his = assay: as above
Chain of OX40.his (P43489 29-214): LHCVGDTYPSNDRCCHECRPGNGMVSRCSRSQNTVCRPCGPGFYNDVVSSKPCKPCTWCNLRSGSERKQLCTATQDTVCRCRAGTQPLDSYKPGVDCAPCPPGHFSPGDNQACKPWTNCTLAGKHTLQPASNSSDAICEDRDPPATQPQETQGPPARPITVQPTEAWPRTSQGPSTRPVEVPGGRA
Procedure: as §1

4-1BB.his [8] = biological target: T4, 4-1BB.his; assay: as above
Procedure: as §1

CD40 = assay: as above
Chain of CD40 (P25942 21-193): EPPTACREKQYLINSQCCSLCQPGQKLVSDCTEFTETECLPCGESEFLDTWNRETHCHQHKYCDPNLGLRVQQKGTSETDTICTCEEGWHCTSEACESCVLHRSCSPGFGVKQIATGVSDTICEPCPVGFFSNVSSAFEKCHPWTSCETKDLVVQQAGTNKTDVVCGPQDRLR
Procedure: as §1

HSA [9] = biological target: T5, HSA; assay: as above
Procedure: as §1

EC50 [1]	IC50 (read off the curve) [2]	IC50 (read off the curve) [3]	binding result (HER3.his [4])	binding result (4-1BB.his [5])	binding result (HSA [6])	OD A450 (Factor Eight)	OD A450 (FGFR.his)	OD A450 (CD147)	OD A450 (PD-1.his)	OD A450 (CTLA4.his)	OD A450 (W317-hPro1.ECD.his)	OD A450 (CD22.his)	OD A450 (VEGF.his)	OD A450 (CD3.his)	OD A450 (HER3.his [7])	OD A450 (OX40.his)	OD A450 (4-1BB.his [8])	OD A450 (CD40)	OD A450 (HSA [9])	Binder
1.08 nM	~1 nM	~1 nM																		B1
			no binding (tested: 10 µg/ml)	no binding (tested: 10 µg/ml)	no binding (tested: 10 µg/ml)	0.04 OD A450	0.05 OD A450	0.04 OD A450	0.04 OD A450	0.04 OD A450	0.05 OD A450	0.05 OD A450	0.05 OD A450	0.04 OD A450	0.04 OD A450	0.04 OD A450	0.05 OD A450	0.05 OD A450	0.05 OD A450	B2
2.41 nM	~1 nM	~2 nM																		B3
			no binding (tested: 10 µg/ml)	no binding (tested: 10 µg/ml)	no binding (tested: 10 µg/ml)	0.05 OD A450	0.05 OD A450	0.06 OD A450	0.06 OD A450	0.07 OD A450	0.07 OD A450	0.06 OD A450	0.07 OD A450	0.06 OD A450	0.06 OD A450	0.05 OD A450	0.06 OD A450	0.06 OD A450	0.07 OD A450	B4
